This series in a line: soluble on expression in E. coli; label from the status in PepcDB or PDB records.
For the sequence “MSLYSIIDIETTGGHASGNRIIEIAIYKFDGEKITDTYQTLINPERRIPVFITSLTGIDTEMVADAPVFADVAREITDFTRDSVFVAHNVNFDYTFVKKELQALNMPYNLPKLCTVRLSRKIFPGLPSYSLGNLCGSLGIDVQNRHRAAGDAEATVRLLNKLLLNDTEGFIPKSLKKNSKETLLPANLPREQFDALPETFGVYYFHDHKGKVIYVGKANNIKKRVISHFSGKQQNQKSQQFMQAIYGLSYEVCGSELLSLLLESHEIKKYFPVYNSIQKFGEKNYGIYQYEDNAGFIRLSIAKVNKLQHPLISFRYISEARTFLLEKVRTFQLCHRRSGLQTAPCSDVELCTACKGTTRSTAYNVKMKRALATFEHPDHSYIIKQPGRTRDEYAVIVVEAGRYLGYAYIPADLSGSTIEELKPFVNRHPDNRDIQKILAMHQRKSMVIAVEGHHHHHH”, the “soluble on expression in E. coli” value is recorded as “not soluble”.

Consider “MGSDKIHHHHHHMNKHFTFTINSICLDENYHPSDKTRITTNFANLARGSHRQANLRNALKMIDNSFNALAHWDNPKGDRYSVELEIISVNLDIDGSGQTFPSIEVLKTNIVDHKTNKRIEGIVGNNFSSYVRDYDFSVLLAEHNKGQAKFSIPDDFGGLHGKLFQSFVNSDAYKQNFNKPPVICLSVSDNKTYHRIENQHPVLGVEYQPNESSLTEQYFKKMGLQVRYFMPPNSVAPLAFYFFGDLLNDYTHLELISTISTMGTFQKIYRPEIYNANAVAGKCYQPNLKNLDHSLTQIVYDRAERSQLANEQGKFAAEHFIKPYQTFFEQWPANYL”, for which the “soluble on expression in E. coli” value is reported as “not soluble”.

Take “MAGDPMTELEMHLLNALEQLQQDYTQRLKDWESPFTDLQHMFELTRQENGQLREQCDDLSQQVQRLAGQVDHLSRLFITNSRLEHHHHHH”: the “soluble on expression in E. coli” value is listed as “not soluble”.

Regarding “MAPTQAQKVLEAFEDFLKCLDLESYQEKYRPIKTVEQDLPRELNPLPDLYDHYWKPNGNTLHFPDFETFFDQWWEKRLRPLNEFIRKYFWGCSYEFVRLGLEARLYRTAVSIWTQFHFCYRWNASCQLRLTATWELDAQGIDAQIQAEDRLIGIQIKKETYRSEAREGNRFLRRREHSALLEVPYTLQSPEELERKAQRARTREEAYRLWVKIAHHLERLPNGFVIFRESYVKDLENFLKQNATTLSGLIPWDKVAREALTGP”, the “soluble on expression in E. coli” value is listed as “soluble”.

Regarding “MSLKTIAIDFETANEERGSACSVGLAWIEDGQIVRVEERLIRPRDMRFSPFNIAVHGIRPRDVEDAPEFPEVMEEFIDDFHGATMIAHNAAFDFSVMRASFDKYRLSYPDLSYLCSVKIARHVWPHLVSHKLNVIAHHLQLRFVHHNAAEDAVVCAAASIAAARALGVAHIRDLPEKIGEGHHHHHH”, the “soluble on expression in E. coli” value is “not soluble”.

As for “MNLIDYKARERGIEVEMPDERGTSSSCSVCGHEDEDSRVERGLWKCDCCGIVAHGDVNGADNIRQKTLPVTPPLGGSGNGCLAQPCVIQFSRTRGFQPRAPAELEHHHHHH”, the “soluble on expression in E. coli” value is “soluble”.

In the case of “MENRRIVIITGANSGIGKEAAQRFANEGDHVIMACRNIAFSRKVQHDIIAASGNDHVDLLELDVSSFASIRTFCTTFNSQYKRLDILIHNAAYFNHGEPYRLSPDGIELTFATNVFGPYLLTSLLRDRLKQSEDPRILHAGSNIIKHFFDPKQTFDLDLLQGNHGTKSYSVYKMYCQSKMALMLLTFQMAEVFADDGIKVNALQINGAKMSKRTIQKVKPWWRPIAWGQNLFFPPPSYMADKYFTICTSDKYKQTTGKLFNDKLEIMEPSPTHYPGFFKQMKLLLGSNVYPAYENTNIREKLWALCKELVGELEHHHHHH”, the “soluble on expression in E. coli” value is listed as “not soluble”.

For “MSLKGSLMPANVLFSARSELWPVYQPLISTYLREMGIDFDLRRDFPPEEVDYVVYAPNGGLRDFTPFTRLKAVLSLWAGVESIADNPTLTVPLARMVDHGLTQGMTEWVVGHVLRYHLGMDAHIHGLNGDWRQDVPPLASQRQVTILGLGALGEAAARALSALGFQVTGWSRSPKELPGIACLHGPDGLDQALARAEILVLLLPSTAATENTLNTQTLARLPRGARIINPGRGPLIDDDALLAALDSGQVGHATLDVFRIEPLPRDHPYWGHPNVTVTPHIASETRPETAAQVICEEGHHHHHH”, the “soluble on expression in E. coli” value is “soluble”.

“SSATPIVQFQGESNCLKCFRYRLNDKHRHLFDLISSTWHWASPKAPHKHAIVTVTYHSEEQRQQFLNVVKIPPTIRHKLGFMSMHLL”: the “soluble on expression in E. coli” value is “soluble”.

For “SDRFVWTSGLLEINETLVIQQRGVRIYDGEEKIKFDAGTLLLSTHRLIWRDQKNHECCMAILLSQIVFIEEQAAGIGKSAKIVVHLHPAPPNKEPGPFQSSKNSYIKLSFKEHGQIEFYRRLSEEMTQRRWENMPVSQSLQTNRGPQPGRIRAVGIVGIERKLEEKRKETDKNISEAFEDLSKLMIKAKEMVELSKSIANKIKDKQGDITEDETIRFKSYLLSMGIANPVTRETYGSGTQYHMQLAKQLAGILQVPLEERGGIMSLTEVYCLVNRARGMELLSPEDLVNACKMLEALKLPLRLRVFDSGVMVIELQSHKEEEMVASALETVSEKGSLTSEEFAKLVGMSVLLAKERLLLAEKMGHLCRDDSVEGLRFYPNLFMTQS”, the “soluble on expression in E. coli” value is “soluble”.

For the sequence “MGSDKIHHHHHHMQNVIENFKQLCKIPHCSYETEQMKEFLSSYAKDKGFKVSVDKAGNIHAIKGKPKICLQSHYDMVCMGDAPNLEVYEENGFLRAKNSSLGADNGIGIAIMMSAMAEFENLECLFTNDEEVGLMGVNLLEHTLESKMLLNLDHESDDEIMIGCAGGVDIEASLSFNTLRKKGKIYELCAQNFKGGHSGINIIRNEKSSIKEMAKFIQENEGEIISFEGGERINSIPKHAKALVHFKDEVKSNNWIKCEFKEENEFEICDQSKKLLSLINSFTHGVRAYDENLDIVQTSINLATLRMQDNQIKFALFARSNILDGLKQVEFETLEFFKAFDFKIRSFNFYPPWEGKPNALSDMVFKALKKVSPNAKVSAIHAGLECGIIEKKQELLCASIGPNIHNPHSTDEHCEIASVEKISKVVFEVLKDNA”, the “soluble on expression in E. coli” value is “not soluble”.

Regarding “VKKNVSGEPYVEGSGSNDVRTGAPIDEIDRILLDQLSRDARTPNNALAALAGIAPSTCLGRVRSLIDRGVIRGFHADIDPATLGRDLQAMIAVRVQANARQHLGQLAEQLATLDEVLNVYFIAGADDYLIHVATASSEELRRFVLDHLSAHPAVASTETILIFEHVRPRHRAPRTEQSSGR”, the “soluble on expression in E. coli” value is “soluble”.

Take “MLLHTFFDDSKTSVEETPRMFVARLFGSPVSTSIIPTEKESINNNNQETAKMPLDPMDSLWMSKAPQVSDLVVQPNVTFKAVTGGSPHSPSASIPIAGADDSIRPDYDTDCLWKPPTRSARVQKERTISMDSTDSEIGALGGRKFSTNEGASPAPTSPIDAQPRARRMSISEMLFGSSPKSFSWGMESNTTNTTTTSNSGGGDIGERKMSITDDPRFKDFMKHQSKIIGDDGISAAGFKRSNYMKD”: the “soluble on expression in E. coli” value is “not soluble”.

For the sequence “MQRFLDSISAATQAKSPAEHETLVAMADLYAIITCVEYLERAWRANAVSDEDYTRNCSRLIAQFRATRQLVMDDVPSVISFLEEYHLAARAAMNRLQVGVPATVEHANSSDETRRRNFTAAAIQATEAFLTFRDALELGERSVDRLLPYLREILLVLGRMGAVFGTADGDATVQRERIVQWVRRLDAMHAYEQITEEDKRQLAHDVDTLYDTFRRRVGELEM”, the “soluble on expression in E. coli” value was “not soluble”.

With “KNFNPPTRRNWESNYFGMPLQDLVTAEKPIPLFVEKCVEFIEDTGLCTEGLYRVSGNKTDQDNIQKQFDQDHNINLVSMEVTVNAVAGALKAFFADLPDPLIPYSLHPELLEAAKIPDKTERLHALKEIVKKFHPVNYDVFRYVITHLNRVSQQHKINLMTADNLSICFWPTLMRPDFENREFLSTTKIHQSVVETFIQQCQFFFYNGEIVE”, the “soluble on expression in E. coli” value is recorded as “soluble”.

On to “MSLAGCTSPANNGAGGDENGETVYRVAYVARTQSDSFAAWLANAISEEADKYDNIIIDVFDGQASDSTQNSLIENAITSNYDAIIIQPNNGEAQKSYAEQAVAAGIITITTNARIEGVQGASSVDADPYEQAKVNADVALEQIPQNANVVVLKGPPGNFHADARRDSWQKEFFDKRPDVTIVGEEIANWNKDEAMTYMETWVQANSKIDAIIAMNDNMAAGALEVVRDDSNFAGMLSYGVDGTAEAVLLIQEGVMTQTSLQSAYDLATALLDTSNKLLTGAETQIDIDIDAPVINSDNVEEYVEMHKRAGAIREGHHHHHH”, for which the “soluble on expression in E. coli” value is “soluble”.

Regarding “MPGIRGPSEYSQEPPRHPSLKVNAKEPFNAEPPRSALVSSYVTPVDLFYKRNHGPIPIVDHLQSYSVTLTGLIQNPRKLFIKDIRSLPKYNVTATLQCAGNRRTAMSKVRNVRGVGWDVSAIGNAVWGGAKLADVLELVGIPKLTASTNLGARHVEFVSVDRCKEENGGPYKASITLSQATNPEADVLLAYEMNGETLNRDHGFPLRVVVPGVIGARSVKWLDSINVIAEESQGFFMQKDYKMFPPSVNWDNINWSSRRPQMDFPVQSAICSVEDVQMVKPGKVSIKGYAVSGGGRGIERVDISLDGGKNWVEASRTQEPGKQYISEHSSSDKWAWVLFEATIDVSQTTEVIAKAVDSAANVQPENVESVWNLRGVLNTSWHRVLLRLGHSNL”, the “soluble on expression in E. coli” value was “soluble”.

Consider “MAEVLMYGLSTCPHCKRTLEFLKREGVDFEVIWIDKLEGEERKKVIEKVHSISGSYSVPVVVKGDKHVLGYNEEKLKELIRG”, for which the “soluble on expression in E. coli” value is listed as “soluble”.

As for “MGSDKIHHHHHHMNQDRNKLLSKIAYLYYIENLNQSQIAAKLGIYRTSISRMLTEARNVGIVKIEIENFDTNMFKLENYVKEKYSLESLEIIPNEFDDTPTILSERISQVAAGVLRNLIDDNMKIGFSWGKSLSNLVDLIHSKSVRNVHFYPLAGGPSHIHAKYHVNTLIYEMSRKFHGECTFMNATIVQENKLLADGILQSRYFENLKNSWKDLDIAVVGIGDFSNKGKHQWLDMLTEDDFKELTKVKTVGEICCRFFDSKGKEVYENLQERTIAISLEDLKNIPQSLAVAYGDTKVSSILSVLRANLVNHLITDKNTILKVLEEDGDLTFREILGE”, the “soluble on expression in E. coli” value is listed as “not soluble”.

Take “TFGPVFEDQPLSVLFPEESTEEQVLLACRARASPPATYRWKMNGTEMKLEPGSRHQLVGGNLVIMNPTKAQDAGVYQCLASNPVGTVVSREAILRFGFLQEFSKEERDPVKAHEGWGVMLPCNPPAHYPGLSYRWLLNEFPNFIPTDGRHFVSQTTGNLYIARTNASDLGNYSCLATSHMDFSTKSVFSKFAQLNLAAEDTRLFAPSIKARFPAETYALVGQQVTLECFAFGNPVPRIKWRKVDGSLSPQWTTAEPTLQIPSVSFEDEGTYECEAENSKGRDTVQGRIIVQAQPEWLKVISDTEADIGSNLRWGCAAAGKPRPTVRWLRNGEPLASQNRVEVLAGDLRFSKLSLEDSGMYQCVAENKHGTIYASAELAVQA”: the “soluble on expression in E. coli” value is recorded as “soluble”.

As for “MDFWPEFMATSWGREFVAGGFGGVAGIISGYPLDTLRIRQQQSSKSGSAFSILRRMLAIEGPSSLYRGMAAPLASVTFQNAMVFQIYAIFSRSFDSSVPLVEPPSYRGVALGGVATGAVQSLLLTPVELIKIRLQLQQTKSGPITLAKSILRRQGLQGLYRGLTITVLRDAPAHGLYFWTYEYVRERLHPGCRKTGQENLRTMLVAGGLAGVASWVACYPLDVVKTRLQQGHGAYEGIADCFRKSVKQEGYTVLWRGLGTAVARAFVVNGAIFAAYEVALRCLFNQSPSPDIVTGD”, the “soluble on expression in E. coli” value is “soluble”.

Take “MGSDKIHHHHHHMEHIEKLNAVLKHIKTSFVGKDEIIDLLGISLIARENAFLLGPPGTAKSAIIRALSACISDGKNFEYLLTRFTEPGELFGPFDIRKLKEGDLVTNTEGMMPEASMVFLDEIFNANSAILNSLLTALNERIFRRGKETKKLPALMFIGASNVLPEDESLNALLDRFLIRARCDYVDTDLLEEVLVAGWNLETRNQNQKPAIAPAEIIELQQYAKQVDVSTVRRQYVDLIHNLRNTGIKISDRRAVKIQNLLAASAVMSNRKEVIPSDLWVLKHVWDTEEQIEILEGIINTIIEKDTNPLAHPQAQYNKTPNAEELIKEIIQLTEKWESGNLSFEEQNVVKDKLRYLQTRSNWIKNNEHKLHIQEKIESLWHKMLQTI”: the “soluble on expression in E. coli” value is listed as “not soluble”.

For the origin of these results see the DeepSol protein solubility set.
